Laboratory results taken from patent US20230272097A1 (PETMEDIX, published 2023).

T1: canine OX40L, full length membrane form, expressed on the cell surface (HEK293 or MEF cells stably … (canine (dog, beagle)))
T1 construct: The same protein is used on HEK293 and on MEF cells; also called HEK-OX40L; OX40L expressing HEK293 cells
T1 chain: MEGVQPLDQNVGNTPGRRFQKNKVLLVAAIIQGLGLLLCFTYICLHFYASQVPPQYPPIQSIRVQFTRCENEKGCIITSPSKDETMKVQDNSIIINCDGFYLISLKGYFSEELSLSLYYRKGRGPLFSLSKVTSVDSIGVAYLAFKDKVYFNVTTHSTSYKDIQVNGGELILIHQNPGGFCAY

T2: OX40L ECD-TNCc-HIS protein (trimeric soluble canine OX40L extra cellular domain probe, HIS tagged) (canine; chicken, UniProt P10039 110-139, limits assumed)
T2 construct: domain: trimerization domain; also called HIS tagged trimeric OX40L protein; not shown: HIS tag
T2 sequence: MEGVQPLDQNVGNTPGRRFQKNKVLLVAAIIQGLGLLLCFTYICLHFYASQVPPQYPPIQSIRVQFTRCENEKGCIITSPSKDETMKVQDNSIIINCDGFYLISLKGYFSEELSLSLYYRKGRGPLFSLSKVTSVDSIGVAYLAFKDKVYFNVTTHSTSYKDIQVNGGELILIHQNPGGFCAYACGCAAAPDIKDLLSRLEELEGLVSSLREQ


Tests used:
[1] = target: T1, canine OX40L, full length membrane …; assay: cell binding (flow cytometry on cells expressing OX40L; cell line not given)
Procedure: (§1) Specific binding to cells expressing OX40L is confirmed by purifying mAb from the CHO supernatant using protein A resin (MabSelect, Cytiva). In brief, MabSelect resin is washed in PBS and diluted to have a 10% slurry. An appropriate volume of the 10% slurry is added to the supernatant and incubated 5-10′ at RT before being loaded into a filter column. After 3 washes with PBS the antibodies are eluted using IgG elute buffer (Pierce) directly into neutralisation buffer (10 mM TRIS pH8.0), 8:1 IgG elute: neutralisation buffer ratio. Antibody solutions are quantified measuring absorbance at 280 nm, using a Nanodrop One (Thermo Fisher). Serial 1:3 dilutions of purified antibodies ranging from 6.6 μM to 66 pM are prepared in FACS buffer and are used to stain HEK293 or MEF cells (or any other commonly used cell lines) expressing canine OX40L.

[2] = target: T2, OX40L ECD-TNCc-HIS protein (trimeric …); assay: SPR exp 1, Biacore 8K, OX40L ECD-TNCc-HIS amine coupled to CM5 chip, antibody as analyte, Kd at equilibrium
Description: (§2) To determine affinity by SPR (Biacore 8K, Cytivia), purified OX40L ECD-TNCc-HIS protein is covalently bound at low density to the surface of a CM5 sensor chip (Cytivia) by amine coupling, using the manufacturer's recommended protocol. Candidate antibodies are subsequently passed across the chip surface at a range of concentrations and affinity determined using the dedicated software (Biacore Insight Evaluation Software).

[3] = target: T2, OX40L ECD-TNCc-HIS protein (trimeric …); assay: SPR exp 2, Biacore 8K, OX40L ECD-TNCc-HIS amine coupled to CM5 chip, antibody as analyte, Kd at equilibrium
Description: as §2

[4] = target: T1, canine OX40L, full length membrane …; assay: flow cytometry titration on HEK cells expressing OX40L; Kd (EC50) from GeoMean vs concentration, Prism four parameter fit
Procedure: FIG. 10. Affinity determination for antibodies that bind OX40L on HEK cells expressing OX40L. Graphs are generated by plotting GeoMean arbitrary units (AU) against Log₁₀ [concentration]. Kd (EC₅₀) was calculated using Prism.
as §1

[5] = target: T1, canine OX40L, full length membrane …; assay: flow cytometry titration on MEF cells expressing OX40L; Kd (EC50) from GeoMean vs concentration, Prism four parameter fit
Procedure: FIG. 11. Affinity determination for antibodies that bind OX40L on MEF cells expressing OX40L. Graphs are generated by plotting GeoMean arbitrary units (AU) against Log₁₀ [concentration]. Kd (EC₅₀) was calculated using Prism.
as §1

| Binder | Kd [1] | Kd [2] | Kd [3] | Kd [4] | Kd [5] |
| --- | --- | --- | --- | --- | --- |
| PMX012 (antibody, V domains shown, Canine variable regions from Ky9 mice; human kappa or canine kappa/lambda light constant) VH: EVQLVESGGDLVKPGGSLRLACVTSGFTFSSYHMNWVRQAPGKGLQWVAYINTGGTVTTYADAMNADAVRGRFTISRDNVKNTLYLQMNRLRAEDTAVYYCARGYGVFDYWGQGTLVTVSP VL: SYVLTQLPSKNVTLKQPAHITCGGDNIGSKSVHWYQQKLGQAPVLIIYYDSRRPTGIPERFSGANSGNTATLTISGALAEDEADYYCQVWDNSDRASWVFGEGTQLTVL | 37 nM | 14.8 nM | 14.8 nM | 3 nM | – |
| PMX014 (antibody, V domains shown, Canine variable regions) VH: EVQLVESGGDLVKPGGSLRLSCVASGFTFSNFHMSWVRQAPGKGLQWVAYINSGGFNINYEDAVRGRFTISRDNAKNTLYLQMNSLRAEDTAIYYCARDWDTHLDTNWFYYWGQGTLVTVSS VL: SYVLTQLPSKNVTLKQSAHITCRGDNIGSKSVHWYQQKLGQAPVLIIYYDSSRPTGIPERFSGANSGNTATLTISGALAEDEADYYCQVWDISAKASVFGGGTHLTVL | 74.6 nM | 19.7 nM | 6.61 nM | 5.12 nM | 1.11 nM |
